The values below come from PMC4434323.

For data set [1], the target named is egrh-1 (C27C12.2) (Caenorhabditis elegans) (UniProt Q18250).
Data set [2] deals with T1, skn-1 (T19E7.2) (Caenorhabditis elegans) (UniProt P34707).
T1 sequence: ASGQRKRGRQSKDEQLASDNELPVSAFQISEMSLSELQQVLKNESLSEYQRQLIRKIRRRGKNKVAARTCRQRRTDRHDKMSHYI

Data set [3] concerns the target T2, zip-3 (W07G1.3) (Caenorhabditis elegans) (UniProt Q9XUK2).
T2 sequence: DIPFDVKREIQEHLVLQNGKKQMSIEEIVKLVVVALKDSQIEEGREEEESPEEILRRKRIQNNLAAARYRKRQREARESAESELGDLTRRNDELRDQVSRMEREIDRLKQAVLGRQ

Data set [4] addresses T3, B0310.2 (B0310.2) (Caenorhabditis elegans) (UniProt Q10938).
T3 sequence: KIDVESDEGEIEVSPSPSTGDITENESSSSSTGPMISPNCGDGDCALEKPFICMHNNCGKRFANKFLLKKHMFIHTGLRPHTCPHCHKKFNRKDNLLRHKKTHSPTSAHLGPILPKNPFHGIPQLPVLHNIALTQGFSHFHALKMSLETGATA

Data set [5] addresses odd-2 (C34H3.2) (Caenorhabditis elegans) (UniProt Q9N5X6).
Data set [6] concerns the target T4, die-1 (C18D1.1) (Caenorhabditis elegans) (UniProt A0A131MCR4).
T4 sequence: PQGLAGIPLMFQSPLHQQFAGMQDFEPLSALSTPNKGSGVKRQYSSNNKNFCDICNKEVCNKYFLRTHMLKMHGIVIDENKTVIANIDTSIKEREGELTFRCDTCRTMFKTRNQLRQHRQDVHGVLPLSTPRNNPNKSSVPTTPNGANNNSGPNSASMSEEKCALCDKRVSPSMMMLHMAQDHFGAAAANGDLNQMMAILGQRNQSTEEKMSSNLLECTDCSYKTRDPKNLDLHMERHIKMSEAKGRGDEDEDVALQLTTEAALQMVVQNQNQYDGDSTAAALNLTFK

For data set [7], the target named is ZC328.2 (ZC328.2) (Caenorhabditis elegans) (UniProt O02050).
The target in data set [8] is T5, ham-2 (C07A12.1) (Caenorhabditis elegans) (UniProt H2KYH4).
T5 sequence: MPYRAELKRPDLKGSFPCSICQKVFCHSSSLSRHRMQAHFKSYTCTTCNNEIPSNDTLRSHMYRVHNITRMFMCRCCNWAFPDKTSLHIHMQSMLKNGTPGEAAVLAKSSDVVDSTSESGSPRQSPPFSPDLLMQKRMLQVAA

For data set [9], the target named is T6, ZK337.2 (ZK337.2) (Caenorhabditis elegans) (UniProt O46016).
T6 sequence: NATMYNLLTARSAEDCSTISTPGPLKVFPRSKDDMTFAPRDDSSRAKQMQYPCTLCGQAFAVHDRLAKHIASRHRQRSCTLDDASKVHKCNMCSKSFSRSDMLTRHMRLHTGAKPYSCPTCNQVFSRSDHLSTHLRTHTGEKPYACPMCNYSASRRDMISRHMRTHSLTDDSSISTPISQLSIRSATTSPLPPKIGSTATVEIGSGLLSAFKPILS

The target of data set [10] is T7, ztf-29 (Y66D12A.12) (Caenorhabditis elegans) (UniProt Q95Q03).
T7 sequence: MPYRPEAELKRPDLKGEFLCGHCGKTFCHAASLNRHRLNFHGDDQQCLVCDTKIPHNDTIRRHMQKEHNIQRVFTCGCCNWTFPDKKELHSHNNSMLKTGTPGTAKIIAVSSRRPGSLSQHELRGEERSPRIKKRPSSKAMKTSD

The target in data set [11] is T8, ztf-19 (T27B1.2) (Caenorhabditis elegans) (UniProt Q22829).
T8 sequence: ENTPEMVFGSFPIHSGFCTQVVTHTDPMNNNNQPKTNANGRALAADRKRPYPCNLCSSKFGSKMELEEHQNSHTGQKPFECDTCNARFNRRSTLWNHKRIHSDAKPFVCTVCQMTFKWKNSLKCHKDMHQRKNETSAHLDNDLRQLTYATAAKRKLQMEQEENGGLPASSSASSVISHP

Data set [12] addresses T9, atf-5 (T04C10.4) (Caenorhabditis elegans) (UniProt Q22156).
T9 sequence: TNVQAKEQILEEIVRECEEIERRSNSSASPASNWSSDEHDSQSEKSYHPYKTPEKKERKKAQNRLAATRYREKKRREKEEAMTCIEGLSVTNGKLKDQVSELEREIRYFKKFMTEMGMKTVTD

In data set [13] the target is atf-7 (C07G2.2) (Caenorhabditis elegans) (UniProt Q86MD3).
Sequence of atf-7 (C07G2.2) (Caenorhabditis elegans) (Q86MD3 339-508): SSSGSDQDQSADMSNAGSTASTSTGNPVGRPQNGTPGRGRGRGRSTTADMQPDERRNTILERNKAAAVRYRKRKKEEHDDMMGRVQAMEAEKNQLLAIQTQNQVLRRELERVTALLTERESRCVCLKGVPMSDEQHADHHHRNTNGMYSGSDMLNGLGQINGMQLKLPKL

Sequence of ZC328.2 (ZC328.2) (Caenorhabditis elegans) (O02050 entry or part of it): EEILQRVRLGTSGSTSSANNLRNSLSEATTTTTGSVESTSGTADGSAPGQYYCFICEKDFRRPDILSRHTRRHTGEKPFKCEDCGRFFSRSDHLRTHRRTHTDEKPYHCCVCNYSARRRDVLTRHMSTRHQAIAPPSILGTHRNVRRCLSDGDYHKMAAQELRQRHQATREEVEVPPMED
Sequence of egrh-1 (C27C12.2) (Caenorhabditis elegans) (Q18250 324-461): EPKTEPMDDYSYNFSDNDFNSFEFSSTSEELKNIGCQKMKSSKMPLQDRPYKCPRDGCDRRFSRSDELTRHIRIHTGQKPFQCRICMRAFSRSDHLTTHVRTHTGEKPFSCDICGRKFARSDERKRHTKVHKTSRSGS
Sequence of odd-2 (C34H3.2) (Caenorhabditis elegans) (Q9N5X6 74-252): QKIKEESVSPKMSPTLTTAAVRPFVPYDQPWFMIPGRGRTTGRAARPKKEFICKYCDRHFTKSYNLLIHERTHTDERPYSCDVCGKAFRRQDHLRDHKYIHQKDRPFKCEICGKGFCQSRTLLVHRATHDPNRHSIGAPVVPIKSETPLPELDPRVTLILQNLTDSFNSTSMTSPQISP

Turning to “GCCCCCAC (double strand) [8-mer GCCCCCAC]”, in data set [1], the binding signal (PBM E-score (-0.5 to 0.5)) is 0.486. As for “CGTCATCA (double strand) [8-mer CGTCATCA]”, the figures for the binding signal (PBM E-score (-0.5 to 0.5)) in data set [2] and in [3] were 0.492 and 0.489, respectively. “ACCTCAAT (double strand) [8-mer ACCTCAAT]” came in with a binding signal (PBM E-score (-0.5 to 0.5)) in data set [4] of 0.49. In data set [4], “ACCTCACT (double strand) [8-mer ACCTCACT]” showed a binding signal (PBM E-score (-0.5 to 0.5)) of 0.478. In turn, “ACGGAAGC (double strand) [8-mer ACGGAAGC]” returned a binding signal (PBM E-score (-0.5 to 0.5)) in data set [5] of 0.485.

Sequence “AATTTAAA (double strand) [8-mer AATTTAAA]” registered a binding signal (PBM E-score (-0.5 to 0.5)) in data set [6] of 0.497. For the sequence “GCCCACGC (double strand) [8-mer GCCCACGC]”, the binding signal (PBM E-score (-0.5 to 0.5)) in data set [7] amounted to 0.485; in data set [1], 0.495.

On to “ATTTAAAC (double strand) [8-mer ATTTAAAC]”, for which the binding signal (PBM E-score (-0.5 to 0.5)) in data set [6] is 0.484.

On to “TGAGGTAA (double strand) [8-mer TGAGGTAA]”, for which, in data set [4], the binding signal (PBM E-score (-0.5 to 0.5)) was determined as 0.49. The same measure, in the same setting: the same measure for “ATGAGGTA (double strand) [8-mer ATGAGGTA]”: 0.484; for “ATCCCTCA (double strand) [8-mer ATCCCTCA]”: 0.482. With “ATTTTAAA (double strand) [8-mer ATTTTAAA]”, in [6], the binding signal (PBM E-score (-0.5 to 0.5)) amounted to 0.496. Sequence “TGCTAGCA (double strand) [8-mer TGCTAGCA]” showed a binding signal (PBM E-score (-0.5 to 0.5)) in data set [8] of 0.48.

Take “CCCCCGCA (double strand) [8-mer CCCCCGCA]”: the values for the binding signal (PBM E-score (-0.5 to 0.5)) in [7], in data set [9] and in data set [1] were 0.497, 0.494 and 0.495, respectively. “ATGCTAAT (double strand) [8-mer ATGCTAAT]” gave a binding signal (PBM E-score (-0.5 to 0.5)) in data set [8] of 0.478. With “AAGCTAGC (double strand) [8-mer AAGCTAGC]”, the binding signal (PBM E-score (-0.5 to 0.5)) in data set [8] amounted to 0.476. “GAACCTCA (double strand) [8-mer GAACCTCA]” registered a binding signal (PBM E-score (-0.5 to 0.5)) in data set [4] of 0.48.

In [6], “GTTTTAAA (double strand) [8-mer GTTTTAAA]” returned a binding signal (PBM E-score (-0.5 to 0.5)) of 0.478. Consider “CCCCCACA (double strand) [8-mer CCCCCACA]”, for which the binding signal (PBM E-score (-0.5 to 0.5)) in data set [1] was found to be 0.489. As for “AAGCTTAT (double strand) [8-mer AAGCTTAT]”, the binding signal (PBM E-score (-0.5 to 0.5)) was 0.487 in data set [8] and 0.488 in [10]. Turning to “CGCCCACG (double strand) [8-mer CGCCCACG]”, the binding signal (PBM E-score (-0.5 to 0.5)) in data set [9] turned out to be 0.492; in data set [1], 0.495. In data set [4], “ATGAGGGA (double strand) [8-mer ATGAGGGA]” returned a binding signal (PBM E-score (-0.5 to 0.5)) of 0.478. “TACCTCAA (double strand) [8-mer TACCTCAA]” had a binding signal (PBM E-score (-0.5 to 0.5)) in data set [4] of 0.495. In the case of “CCCACGCG (double strand) [8-mer CCCACGCG]”, the figures for the binding signal (PBM E-score (-0.5 to 0.5)) in data set [7] and in data set [1] were 0.49 and 0.486, respectively. As to “TTTAAAAA (double strand) [8-mer TTTAAAAA]”, the binding signal (PBM E-score (-0.5 to 0.5)) in [6] was determined as 0.48. “CCCCCGCG (double strand) [8-mer CCCCCGCG]”: the binding signal (PBM E-score (-0.5 to 0.5)) was 0.488 in data set [7] and 0.485 in data set [1]. As for “AGTTTAAA (double strand) [8-mer AGTTTAAA]”, the binding signal (PBM E-score (-0.5 to 0.5)) in data set [6] came to 0.49; in data set [11], 0.495. Take “GTTTAAAA (double strand) [8-mer GTTTAAAA]”: in data set [6], the binding signal (PBM E-score (-0.5 to 0.5)) amounted to 0.471. “AGCTAGCT (double strand) [8-mer AGCTAGCT]” displayed a binding signal (PBM E-score (-0.5 to 0.5)) in [8] of 0.488. In [4], “GTGAGGGA (double strand) [8-mer GTGAGGGA]” yielded a binding signal (PBM E-score (-0.5 to 0.5)) of 0.478. Sequence “CCTCAATC (double strand) [8-mer CCTCAATC]” showed a binding signal (PBM E-score (-0.5 to 0.5)) in data set [4] of 0.477. Turning to “ACTTTAAA (double strand) [8-mer ACTTTAAA]”, the binding signal (PBM E-score (-0.5 to 0.5)) in [6] worked out at 0.493. In data set [6], “ATTTAAAA (double strand) [8-mer ATTTAAAA]” had a binding signal (PBM E-score (-0.5 to 0.5)) of 0.481. As for “AACCTCAA (double strand) [8-mer AACCTCAA]”, the binding signal (PBM E-score (-0.5 to 0.5)) in [4] turned out to be 0.483.

For the sequence “CGCCCCCA (double strand) [8-mer CGCCCCCA]”, the results for the binding signal (PBM E-score (-0.5 to 0.5)) in data set [9] and in [1] were 0.494 and 0.493, respectively. Consider “GTGAGGTA (double strand) [8-mer GTGAGGTA]”, for which the binding signal (PBM E-score (-0.5 to 0.5)) in [4] was 0.485. Regarding “AGGGGGCG (double strand) [8-mer AGGGGGCG]”, in data set [1], the binding signal (PBM E-score (-0.5 to 0.5)) was determined as 0.486.

In the case of “CCCACGCA (double strand) [8-mer CCCACGCA]”, the binding signal (PBM E-score (-0.5 to 0.5)) in [7] was 0.497; in data set [9], 0.488; in [1], 0.496. In turn, “GATTTAAA (double strand) [8-mer GATTTAAA]” yielded a binding signal (PBM E-score (-0.5 to 0.5)) in [6] of 0.477.

On to “TTTTAAAA (double strand) [8-mer TTTTAAAA]”, for which the binding signal (PBM E-score (-0.5 to 0.5)) in [6] is 0.494.

“TTAGCTAA (double strand) [8-mer TTAGCTAA]” came in with a binding signal (PBM E-score (-0.5 to 0.5)) in [8] of 0.483. Consider “AAGCTTAC (double strand) [8-mer AAGCTTAC]”, for which the binding signal (PBM E-score (-0.5 to 0.5)) was found to be 0.489 in data set [8] and 0.485 in [10]. In the case of “ACCCCCGC (double strand) [8-mer ACCCCCGC]”, the binding signal (PBM E-score (-0.5 to 0.5)) in data set [7] came to 0.492; in data set [1], 0.485. Regarding “AAAGCTTA (double strand) [8-mer AAAGCTTA]”, the binding signal (PBM E-score (-0.5 to 0.5)) in data set [8] came to 0.481; in data set [10], 0.485. With “CTTTTAAA (double strand) [8-mer CTTTTAAA]”, the binding signal (PBM E-score (-0.5 to 0.5)) in data set [6] was 0.47.

Turning to “CTACCTCA (double strand) [8-mer CTACCTCA]”, in data set [4], the binding signal (PBM E-score (-0.5 to 0.5)) was 0.484. “ATGCTTAA (double strand) [8-mer ATGCTTAA]” gave a binding signal (PBM E-score (-0.5 to 0.5)) in [8] of 0.48. In the case of “GTTTAAAC (double strand) [8-mer GTTTAAAC]”, the binding signal (PBM E-score (-0.5 to 0.5)) in [6] came to 0.481; in [11] it was 0.494. Take “GGTTTAAA (double strand) [8-mer GGTTTAAA]”: the binding signal (PBM E-score (-0.5 to 0.5)) in data set [6] came to 0.484. In [4], “ACCTCAAA (double strand) [8-mer ACCTCAAA]” came in with a binding signal (PBM E-score (-0.5 to 0.5)) of 0.481. In the case of “TAAGCTTA (double strand) [8-mer TAAGCTTA]”, the binding signal (PBM E-score (-0.5 to 0.5)) was determined as 0.497 in data set [8] and 0.496 in data set [10].

Regarding “ACGTCATA (double strand) [8-mer ACGTCATA]”, the results for the binding signal (PBM E-score (-0.5 to 0.5)) in data set [12], in [13] and in data set [3] were 0.464, 0.497 and 0.493, respectively.

As to “CGCCCCCG (double strand) [8-mer CGCCCCCG]”, the binding signal (PBM E-score (-0.5 to 0.5)) in data set [7] worked out at 0.489; in data set [9] it was 0.49; in [1], 0.496. With “ATACCTCA (double strand) [8-mer ATACCTCA]”, the binding signal (PBM E-score (-0.5 to 0.5)) in [4] was 0.485.
